“Also recorded” adds a separate entry of the source.
Tests used:
PC12 cells = test: PC12 cell viability / NGF withdrawal (acid phosphatase assay); format: cell-based
Description: To investigate the role of c29 peptide in NGF-withdrawal assays, NGF-containing medium in PC12 cultures was exchanged for NGF-free medium on day 3, and cells were treated with c29 or scrambled peptide and reduced NGF concentrations (1 ng or 10 ng/ml). Treated cells were cultured for 2 days and cell viability was determined via quantification of cytosolic acid phosphatase enzyme activity as described in (Yang et al., 1996).
Briefly, cells were grown in 96-well plates at densities of 5000 cells per well. The culture medium in treated cell assays was removed from and each well was washed once with 200 μl phosphate buffered saline (PBS, pH 7.2). To each well, 100 μl of sodium acetate and p-nitrophenyl phosphate buffer containing 0.1 M sodium acetate (pH 5.0), 0.1% Triton X-100, and 5 mM p-nitrophenyl phosphate was added. The plates were placed in a 37° C. incubator for 30 minutes. The reaction was stopped with the addition of […] of 1 N NaOH, and colour development absorbance was assayed at 405 nm using a microplate reader (POLARstar OPTIMA, USA). […] This background value was typically 0.03-0.1 absorbance units.

p75^FL [1] = biological target: T1, p75^FL (Rattus norvegicus, UniProt P07174); test: NGF-FITC binding by flow cytometry, p75^FL-transfected HEK293 cells
T1 construct: p75^FL—full-length p75^NTR; expressed in transfected cells; host or cells: HEK293
T1 sequence (P07174 30-425): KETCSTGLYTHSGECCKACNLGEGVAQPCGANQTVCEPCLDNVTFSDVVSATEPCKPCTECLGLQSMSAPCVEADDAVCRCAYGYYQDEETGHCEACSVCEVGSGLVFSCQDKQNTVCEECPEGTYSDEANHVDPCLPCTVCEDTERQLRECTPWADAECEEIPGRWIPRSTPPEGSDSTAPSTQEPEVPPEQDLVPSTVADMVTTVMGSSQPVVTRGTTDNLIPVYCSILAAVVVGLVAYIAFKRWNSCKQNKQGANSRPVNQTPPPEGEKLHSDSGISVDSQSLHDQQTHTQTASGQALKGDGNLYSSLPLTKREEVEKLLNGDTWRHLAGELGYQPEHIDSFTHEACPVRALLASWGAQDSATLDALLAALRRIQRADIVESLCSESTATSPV
Description: The NGF was conjugated to FITC by standard methods and detailed flow cytometry acquisition and analysis. For NGF-FITC conjugation 400 μg βNGF in 200 μl pH 8.5 NaHCO3 buffer was mixed with 5-10 μl of 10 mg/ml FITC in 100 μl DMSO for 10 hours at 4° C. on an orbital shaker set to 100 rpm. The excess FITC was removed by dialysis against 3 changes of 5 L of 10 mM Tris, 150 mM NaCl, 0.2% acetic acid, pH 8.2 for 24 hours at 4° C. Conjugate F/P characterization was determined by measuring absorbance at 280 nm and 495 nm according to manufacturer's instructions. Biological activity of the NGF-FITC conjugate was tested by performing PC12 cell neurite outgrowth assays unlabelled NGF, and comparing the levels of neuritogenesis. NGF-FITC conjugates were used within 4 weeks of synthesis.
For the flow cytometry NGF binding assays, fluorescence cell parameters of at least 20,000 events for PC12 cells and 100,000 events for HEK293 cells were acquired by flow cytometry list mode and measurements were performed on a single cell basis (with compensation for double event counting). Dead cells and debris were gated out of the analysis on the basis of forward scatter fluorescence, and mean, median and maximal fluorescence values of the gated cell populations were analysed using FACS Diva Software (Becton-Dickinson Biosciences) and FACS Express Software (Becton-Dickinson Biosciences).
Background fluorescence of HEK293 cells was non-transfected cells (±c29 or scrambled peptide treatment) treated with 26 nM NGF-FITC. For PC12 cells, the control population was cells that had not been treated with NGF-FITC. Analysis of real-time NGF-FITC receptor binding experiments was performed on 550,000-600,000 cells at 4° C. in serum free NB medium and binding kinetics were calculated from raw data files compressed to 50,000 binding events using FlowJo and MatLab Software. Data was plotted with the use of GraphPad Prism.
Only NGF-FITC preparations that promoted equivalent neurite outgrowth of PC12 cells to that of unlabelled NGF were used in binding experiments. To investigate NGF binding, PC12 or transfected HEK293 cells were serum starved for 4 hours, harvested, washed with Dulbecco's Modified Eagle Medium (DMEM), and counted. When used, c29 or scrambled peptide were added to cultures for the third hour of the serum starvation procedure. 1×10^7 cells/ml suspended in 500 μl of serum-free DMEM were incubated with 26 nM NGF-FITC on ice for 60 minutes before analysis. For binding competition assays, following 1 hour in NGF-FITC, cells were washed with ice-cold PBS containing 0.1% normal bovine serum and incubated on ice with unlabeled NGF at concentrations ranging from 100 pM to 10 μM for 30 minutes, then washed twice in PBS before being analysed on a BD Flow Cytometer FACS Scan (Becton-Dickinson).
To determine association rates, cells were harvested as above following serum starvation and peptide treatment, and were resuspended in 3 ml of serum-free Neurobasal (NB) medium containing […] (Invitrogen) and […] nonessential amino acids, prior to analysis on the flow cytometer. Cells were analysed for 30 seconds prior to the addition of 26 nM NGF-FITC, and then for 30 minutes in real time with an analysis rate of 200-300 events/sec.

p75^FL [2] = test: Production of endogenous p75^CTF or p75^ICD fragments in p75^FL-transfected HEK293 cells; format: cell-based; conditions: vs untreated cells, data not shown
[3] = Fear extinction / return of fear in mice; format: in vivo, mouse; conditions: female mice, infusion into infralimbic prefrontal cortex, VEH RET vs C29 RET, FIG. 12
From the text: Baker-Andresen et al. Learn Mem. 2013 Apr. 15; 20(5):237-40.
Following fear conditioning (Example 17), exposure to the tone without the shock is termed extinction (removal of the memory).
Researchers can time the duration of this response. Repeated exposure to the tone without the shock is termed extinction (removal of the memory).

[4] = 26 nM NGF-FITC 60 minutes, c.f. p75^FL alone

Sequence: KRWNSCKQNKQGANSRPVNQTPPPEGEKL (c29- Fragment of p75ICD) [29 amino acid peptide of the p75NTR juxtamembrane Chopper domain; delivered to cells linked to PTD4 or disulfide-linked carrier]
- survival rate of cells (PC12 cells; 1 ng/ml NGF after differentiation in 100 ng/ml NGF): significantly increased the survival rate
- cell survival (PC12 cells; absence of NGF): did not affect on cell survival
- basal PC12 cell growth and proliferation (PC12 cells; medium lacking NGF): no effect on basal PC12 cell growth and proliferation
- % of cell population with FITC above background (p75^FL [1]; [4]): 100.5 ± 14.2%
- Maximal fluorescence per cell of the population (p75^FL [1]; [4]): 98.7 ± 4.3%
- Mean fluorescence per FITC-positive cell (p75^FL [1]; [4]): 105.2 ± 3.6%
- Median population fluorescence (p75^FL [1]; [4]): 103.8 ± 11.2%
- half time of NGF-FITC binding (p75^FL [1]; 26 nM NGF-FITC, cells treated with c29): 7.1 min
- fluorescence profile of the population (p75^FL [1]; pre-treated with c29, NGF-FITC): did not change
- rate of production of endogenous p75^CTF or p75^ICD fragments (p75^FL [2]): did not differ significantly
- return of fear [3]: prevents the return of fear; also recorded: blocked the return of fear

— patent publication US20150344535A1, “NEUROTROPHIN-TYROSINE KINASE RECEPTOR SIGNALING” (THE UNIVERSITY OF QUEENSLAND, priority 2012, published 2015)
